Data as given in PMC9881579.

B1: LHD206B (designed binder)
chain: GRQEKVLKSIEETVRKMGVTMETHRSGNEVKVVIKGLHKSQQEQLLKDVLKTANKQGVNVHISFRGDTVTIRVRE
modifications: not checked
B2: LHD206B, split luciferase construct (designed binder)
chain: B1 chain
modifications: here or on the partner: Strep-tag, sfGFP, GS-linker and split luciferase fragment left out; protomer taken from the unfused monovalent entry / Strep-tag, sfGFP, GS-linker and split luciferase fragment left out; protomer take

How the values were obtained:
LHD206A [1] = experiment: BLI; biotinylated protomer on streptavidin biosensors, designed partner in solution; 25 °C; 10 mM HEPES pH 7.4, 150 mM NaCl, 3 mM EDTA, 0.05% Surfactant P20, 1 mg/ml BSA; steady-state fit, 1:1 model
LHD206A [2] = experiment: BLI; biotinylated protomer on streptavidin biosensors, designed partner in solution; 25 °C; 10 mM HEPES pH 7.4, 150 mM NaCl, 3 mM EDTA, 0.05% Surfactant P20, 1 mg/ml BSA; global kinetic fit, 1:1 model
[3] = target: LHD206A, split luciferase construct; experiment: split reporter (BiFC, NanoBiT); smBiT:lgBiT equilibrium binding in E. coli lysate; one component at 1 nM, the other titrated; overnight at room temperature; 20 mM sodium phosphate, 100 mM NaCl, pH 7.4, 0.05% Tween 20

Row | Binder | Kd (LHD206A [1]) | Kd (LHD206A [2]) | koff (LHD206A [2]) | kon (LHD206A [2]) | Kd [3]
1 | B1 | 8.4 nM | 2.8 nM | 0.00075 s⁻¹ | 270000 M⁻¹ s⁻¹ | –
2 | B2 | – | – | – | – | 11 nM
